Experiments:
[1] = test system: E. coli MG1655 ΔfadE lacZ::Ptrc ′tesA-fadD; assay: Heterologous expression in a fatty acyl-CoA-producing E. coli strain, GC-MS; type: cell-based; conditions: reductase coexpressed with a fatty aldehyde decarbonylase
Excerpt: The genomic DNA encoding Acaryochloris marina MBIC11017 AM1—4041 (YP—001518340; putative fatty aldehyde decarbonylase) (SEQ ID NO: 9) was synthesized and cloned into the NdeI and XhoI sites of vector OP-183 (pACYC derivative) under the control of the Ptrc promoter. The resulting construct was cotransformed with OP80-PCC7942—1594 into E. coli MG1655 ΔfadE lacZ::Ptrc ′tesA-fadD. This strain expresses a cytoplasmic version of the E. coli thioesterase, ′TesA, and the E. coli acyl-CoA synthetase, FadD, under the control of the Ptrc promoter, and therefore produces fatty acyl-CoAs. The cells were grown at 37° C. in M9 minimal media supplemented with 100 μg/ml spectinomycin and 100 μg/ml carbenicillin. The cells were cultured and extracted as in Example 3 and analyzed by GC-MS as described in Example 1.
The genomic DNA encoding Synechocystis sp. PCC6803 sll0208 (NP_442147; putative fatty aldehyde decarbonylase) (SEQ ID NO: 3) was synthesized and cloned into the NdeI and XhoI sites of vector OP-183 (pACYC derivative) under the control of the Ptrc promoter. The genomic DNA encoding Synechocystis sp. PCC6803 sll0209 (NP_442146; acyl-ACP reductase) (SEQ ID NO: 68) was synthesized and cloned into the NcoI and EcoRI sites of vector OP-183 (pACYC derivative) under the control of the Ptrc promoter. The resulting constructs were cotransformed with into E. coli MG1655 ΔfadE lacZ::Ptrc ′tesA-fadD. This strain expresses a cytoplasmic version of the E. coli thioesterase, ′TesA, and the E. coli acyl-CoA synthetase, FadD, under the control of the Ptrc promoter, and therefore produces fatty acyl-CoAs. The cells were grown at 37° C. in M9 minimal media supplemented with 100 μg/ml spectinomycin and 100 μg/ml carbenicillin. The cells were cultured and extracted as in Example 3 and analyzed by GC-MS as described in Example 26.

E. coli MG1655 [2] = assay: Heterologous expression of putative aldehyde-generating enzyme alone in E. coli, GC-MS of extracts; type: cell-based; conditions: enzyme expressed alone in E. coli MG1655, M9 minimal media, 37° C.
Description: (§1) The genomic DNA encoding Synechococcus elongatus PCC7942 orf1594 (YP—400611; putative aldehyde-generating enzyme) (SEQ ID NO: 65) was amplified and cloned into the NcoI and EcoRI sites of vector OP-80 (pCL1920 derivative) under the control of the Ptrc promoter. The resulting construct (“OP80-PCC7942—1594”) was transformed into E. coli MG1655 and the cells were grown at 37° C. in M9 minimal media with 1% (w/v) glucose as carbon source and supplemented with 100 μg/ml spectinomycin. When the culture reached OD600 of 0.8-1.0, it was induced with 1 mM IPTG and cells were grown for an additional 18-20 h at 37° C. Cells from 0.5 ml of culture were extracted with 0.5 ml of ethyl acetate. After sonication for 60 min, the sample was centrifuged at 15,000 rpm for 5 min. The solvent layer was analyzed by GC-MS as described in Example 1.
The genomic DNA encoding Cyanothece sp. ATCC51142 cce—1430 (YP—001802846; putative aldehyde-generating enzyme) (SEQ ID NO: 70) was amplified and cloned into the NcoI and EcoRI sites of vector OP-80 (pCL1920 derivative) under the control of the Ptrc promoter. The resulting construct was transformed into E. coli MG1655 and the cells were grown at 37° C. in M9 minimal media with 1% (w/v) glucose as carbon source and supplemented with 100 μg/ml spectinomycin. The cells were cultured and extracted as in Example 3 and analyzed by GC-MS as described in Example 26.
The genomic DNA encoding P. mariunus CCMP1986 PMM0533 (NP_892651; putative aldehyde-generating enzyme) (SEQ ID NO: 72) and Prochlorococcus mariunus CCMP1986 PMM0532 (NP_892650; putative decarbonylase) (SEQ ID NO: 19) were amplified and cloned into the NcoI and EcoRI sites of vector OP-80 and the NdeI and XhoI sites of vector OP-183, respectively. The resulting constructs were separately transformed and cotransformed into E. coli MG1655 and the cells were grown at 37° C. in M9 minimal media supplemented with 100 μg/ml spectinomycin and 100 μg/ml carbenicillin. The cells were cultured and extracted as in Example 3 and analyzed by GC-MS as described in Example 26.

[3] = substrate: CCCCCCCCCCCCCCCCCC(=O)SCCNC(=O)CCNC(=O)[C@H](O)C(C)(C)COP(=O)(O)OP(=O)(O)OC[C@H]1O[C@@H](n2cnc3c(N)ncnc32)[C@H](O)[C@@H]1OP(=O)(O)O; assay: acyl-ACP or acyl-CoA reductase enzyme assay, GC/MS; type: biochemical; conditions: other: in the presence of 2 mM NADPH; pH 7.5; 37.0 °C
Description: The genomic DNA encoding S. elongatus PCC7492 orf1594 (SEQ ID NO: 66) was cloned into the NcoI and XhoI sites of vector pET-28b under the control of the T7 promoter. The resulting PCC7942_orf1594 protein contained a C-terminal His-tag. An E. coli BL21 strain (DE3) (Invitrogen) was transformed with the plasmid and PCC7942_orf1594 protein was expressed and purified as described in Example 22. The protein solution was stored in the following buffer: 50 mM sodium phosphate, pH 7.5, 100 mM NaCl, 1 mM THP, 10% glycerol. Protein concentration was determined using the Bradford assay (Bio-Rad). 2 mg/ml of PCC7942 orf1594 protein was obtained.
To test PCC7942_orf1594 protein for acyl-ACP or acyl-CoA reductase activity, the following enzyme assays were set-up. 100 μl reactions were set-up in 50 mM Tris-HCl buffer at pH 7.5 with the following components at their respective final concentrations: 10 μM of purified PCC7942_orf1594 protein, 0.01-1 mM acyl-CoA or acyl-ACP, 2 mM MgCl2, 0.2-2 mM NADPH. The reactions were incubated for 1 h at 37° C. and where stopped by adding 100 μl ethyl acetate (containing 5 mg/l 1-octadecene as internal standard). […] 80 μl of the top layer were transferred into GC glass vials and analyzed by GC/MS as described in Example 26. The amount of aldehyde formed was calculated based on the internal standard.

E. coli MG1655 [4] = assay: Coexpression of putative decarbonylase with S. elongatus PCC7942 orf1594 in E. coli, GC-MS of extracts; type: cell-based; conditions: coexpressed with S. elongatus PCC7942 orf1594 in E. coli MG1655, M9 minimal media
Description: After a 1 μl splitless injection (inlet temperature held at 300° C.) onto the GC/MS column, the oven was held at 100° C. for 3 mins. The temperature was ramped up to 320° C. at a rate of 20° C./min. The oven was held at 320° C. for an additional 5 min. The flow rate of the carrier gas helium was 1.3 ml/min. The MS quadrapole scanned from 50 to 550 m/z. Retention times and fragmentation patterns of product peaks were compared with authentic references to confirm peak identity.
as §1
The genomic DNA encoding Synechococcus elongatus PCC7942 orf1593 (YP—400610; putative decarbonylase) (SEQ ID NO: 1) was amplified and cloned into the NdeI and XhoI sites of vector OP-183 (pACYC derivative) under the control of the Ptrc promoter. The resulting construct was cotransformed with OP80-PCC7942—1594 into E. coli MG1655 and the cells were grown at 37° C. in M9 minimal media supplemented with 100 μg/ml spectinomycin and 100 μg/ml carbenicillin. The cells were cultured and extracted as in Example 3 and analyzed by GC-MS as described in Example 1. […]

[5] = test system: E. coli MG1655 ΔfadD lacZ::Ptrc-′tesA; assay: Heterologous expression in a fatty aldehyde-producing E. coli strain with MSMEG—5739, GC-MS; type: cell-based; conditions: decarbonylase coexpressed with carboxylic acid reductase MSMEG—5739
[6] = In vitro decarbonylation enzyme assay with purified Npun02004178 protein, GC/MS; type: biochemical; conditions: 30 μM protein, 200 μM octadecanal, spinach ferredoxin, ferredoxin reductase, 1 mM NADPH, 37° C., 2 h
Description: The genomic DNA encoding N. punctiforme PCC73102 Npun02004178 (SEQ ID NO: 5) was cloned into the NdeI and XhoI sites of vector pET-15b under the control of the T7 promoter. The resulting Npun02004178 protein contained an N-terminal His-tag. An E. coli BL21 strain (DE3) (Invitrogen) was transformed with the plasmid by routine chemical transformation techniques. Protein expression was carried out by first inoculating a colony of the E. coli strain in 5 ml of LB media supplemented with 100 mg/L of carbenicillin and shaken overnight at 37° C. to produce a starter culture. This starter cultures was used to inoculate 0.5 L of LB media supplemented with 100 mg/L of carbenecillin. […] Protein concentration was determined using the Bradford assay (Biorad). […]
To test Npun02004178 protein for decarbonylation activity, the following enzyme assays were set-up. […] Samples were analyzed by GC/MS using the following parameters: run time: 13.13 min; column: HP-5-MS Part No. 19091S-433E (length of 30 meters; I.D.: 0.25 mm narrowbore; film: 0.25ìM); inject: 1ìl Agilent 6850 inlet; inlet: 300 C splitless; carrier gas: helium; flow: 1.3 ml/min; oven temp: 75° C. hold 5 min, 320 at 40° C./min, 320 hold 2 min; det: Agilent 5975B VL MSD; det. temp: 330° C.; scan: 50-550 M/Z. Heptadecane from Sigma was used as an authentic reference for determining compound retention time and fragmentation pattern.

B1: PCC7942_orf1594 protein (Synechococcus elongatus PCC 7942 = FACHB-805) (protein)
chain: MFGLIGHLTSLEQARDVSRRMGYDEYADQGLEFWSSAPPQIVDEITVTSATGKVIHGRYIESCFLPEMLAARRFKTATRKVLNAMSHAQKHGIDISALGGFTSIIFENFDLASLRQVRDTTLEFERFTTGNTHTAYVICRQVEAAAKTLGIDITQATVAVVGATGDIGSAVCRWLDLKLGVGDLILTARNQERLDNLQAELGRGKILPLEAALPEADFIVWVASMPQGVVIDPATLKQPCVLIDGGYPKNLGSKVQGEGIYVLNGGVVEHCFDIDWQIMSAAEMARPERQMFACFAEAMLLEFEGWHTNFSWGRNQITIEKMEAIGEASVRHGFQPLALAI
notes: His-tag (C); made in house; host or cells: E. coli BL21 (DE3)
- Km for the reduction of octadecenoyl-ACP in the presence of 2 mM NADPH (in vitro reductase assay, GC/MS) (octadecenoyl-ACP): 7.8 ± 2 µM
- use of acyl-CoA as substrate to produce fatty aldehydes [1]: able to use acyl-CoA as a substrate
- production of fatty aldehydes and fatty alcohols (E. coli MG1655 [2]): generates aldehydes in vivo
- Km [3]: 45 ± 20 µM

B2: Npun02004178: Nostoc punctiforme PCC73102 putative decarbonylase (SEQ ID NO: 5) (protein)
chain: MQQLTDQSKELDFKSETYKDAYSRINAIVIEGEQEAHENYITLAQLLPESHDELIRLSKMESRHKKGFEACGRNLAVTPDLQFAKEFFSGLHQNFQTAAAEGKVVTCLLIQSLIIECFAIAAYNIYIPVADDFARKITEGVVKEEYSHLNFGEVWLKEHFAESKAELELANRQNLPIVWKMLNQVEGDAHTMAMEKDALVEDFMIQYGEALSNIGFSTRDIMRLSAYGLIGA
modifications: Nostoc punctiforme
- fatty aldehyde decarbonylase activity (alkane/alkene production) (E. coli MG1655 [4]): active fatty aldehyde decarbonylase
- conversion of fatty aldehydes provided by MSMEG—5739 to alkanes [5]: produced tridecane, pentadecene and pentadecane
- in-vitro conversion of octadecanal to heptadecane [6]: in-vitro conversion of octadecanal to heptadecane was observed
